Measured values reported in US10280205B2, “Method for treating cancer with an activated T lymphocyte that selectively recognizes a cancer cell consisting of specific peptide” (immatics biotechnologies GmbH, priority 2015, dated 2019).

These substances were tested against HLA-A*02:01 (Homo sapiens, UniProt P04439, D140Y/D185E/D98H/E176V/E277Q/G131W/G231S/I119V/I121R/I166T/I218V/L300P/L318F/N151K/N90K/P208A/P217A/Q86G/Q94H/R138H/R169H/T345S) (assay: MHC binding assay: UV-ligand exchange with beta2m ELISA (exchange yield)). Settings: binding to HLA-A*02:01, β2m ELISA.
Method in brief: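 Exchange yield reflects how much β2m remains bound, measured by ELISA: streptavidin capture of 100-fold diluted monomers, HRP anti-β2m at 37° C. for 1 h, TMB read at 450 nm. Monomers come from UV cleavage of a conditional HLA-A*02:01 ligand in the presence of the candidate peptide.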

Substance	Peptide exchange (MHC class I binding score, peptide exchange yield)
495 (FIFSEKPVFV; listed as Homo sapiens) [compound 495]	“+++” (≥50 = +++)
496 (FLVEKQPPQV; listed as Homo sapiens) [compound 496]	“+++” (≥50 = +++)
498 (KLWTGGLDNTV; listed as Homo sapiens) [compound 498]	“+++” (≥50 = +++)
502 (RLLAQVPGL; listed as Homo sapiens) [compound 502]	“+++” (≥50 = +++)
503 (SLNHFTHSV; listed as Homo sapiens) [compound 503]	“+++” (≥50 = +++)
504 (GLSDGNPSL; listed as Homo sapiens) [compound 504]	“++” (≥20% = ++)
505 (SLAPGDVVRQV; listed as Homo sapiens) [compound 505]	“++” (≥20% = ++)
507 (KLIDDQDISISL; listed as Homo sapiens) [compound 507]	“+++” (≥50 = +++)
509 (FLFDTKPLIV; listed as Homo sapiens) [compound 509]	“+++” (≥50 = +++)
510 (KLYSVVSQL; listed as Homo sapiens) [compound 510]	“++” (≥20% = ++)
512 (SLSEIVPCL; listed as Homo sapiens) [compound 512]	“+++” (≥50 = +++)
513 (SLWPSPEQL; listed as Homo sapiens) [compound 513]	“++” (≥20% = ++)
517 (LLMPIPEGLTL; listed as Homo sapiens) [compound 517]	“+++” (≥50 = +++)
518 (KLNAEVACV; listed as Homo sapiens) [compound 518]	“+++” (≥50 = +++)
519 (GLLHLTLLL; listed as Homo sapiens) [compound 519]	“+++” (≥50 = +++)
520 (LAVHPSGVAL; listed as Homo sapiens) [compound 520]	“+” (≥10% = +)
521 (MLLTKLPTI; listed as Homo sapiens) [compound 521]	“+++” (≥50 = +++)
522 (TLWYRSPEV; listed as Homo sapiens) [compound 522]	“++” (≥20% = ++)
523 (YQIPRTFTL; listed as Homo sapiens) [compound 523]	“++” (≥20% = ++)
525 (VLLEAGEGLVTI; listed as Homo sapiens) [compound 525]	“+++” (≥50 = +++)
526 (RLAEVGQYEQV; listed as Homo sapiens) [compound 526]	“++” (≥20% = ++)

Substance	Peptide exchange (MHC class I binding score, peptide exchange yield)
527 (FLLEPGNLEV; listed as Homo sapiens) [compound 527]	“++++” (≥75% = ++++)
529 (LLADELITV; listed as Homo sapiens) [compound 529]	“+++” (≥50 = +++)
530 (VMYADIGGMDI; listed as Homo sapiens) [compound 530]	“+++” (≥50 = +++)
531 (YTLPIASSIRL; listed as Homo sapiens) [compound 531]	“+++” (≥50 = +++)
538 (LLLAHIIAL; listed as Homo sapiens) [compound 538]	“++” (≥20% = ++)
539 (ALFDAQAQV; listed as Homo sapiens) [compound 539]	“+++” (≥50 = +++)
542 (RVWDISTVSSV; listed as Homo sapiens) [compound 542]	“+++” (≥50 = +++)
544 (LLWDVPAPSL; listed as Homo sapiens) [compound 544]	“+++” (≥50 = +++)
545 (LLADLLHNV; listed as Homo sapiens) [compound 545]	“+++” (≥50 = +++)
547 (TLDITPHTV; listed as Homo sapiens) [compound 547]	“+++” (≥50 = +++)
548 (ALWENPESGEL; listed as Homo sapiens) [compound 548]	“++” (≥20% = ++)
549 (AMLENASDIKL; listed as Homo sapiens) [compound 549]	“+++” (≥50 = +++)
551 (KLYESLLPFA; listed as Homo sapiens) [compound 551]	“+++” (≥50 = +++)
552 (GLLDLPFRVGV; listed as Homo sapiens) [compound 552]	“++++” (≥75% = ++++)
554 (LLMPSSEDLLL; listed as Homo sapiens) [compound 554]	“+++” (≥50 = +++)
557 (KLYDDMIRL; listed as Homo sapiens) [compound 557]	“+++” (≥50 = +++)
558 (GLLENIPRV; listed as Homo sapiens) [compound 558]	“+++” (≥50 = +++)
561 (YLQLTQSEL; listed as Homo sapiens) [compound 561]	“+++” (≥50 = +++)
564 (TVTNAVVTV; listed as Homo sapiens) [compound 564]	“+++” (≥50 = +++)
567 (SLLPLDDIVRV; listed as Homo sapiens) [compound 567]	“+++” (≥50 = +++)
568 (TLYDIAHTPGV; listed as Homo sapiens) [compound 568]	“++++” (≥75% = ++++)

Second part, the substance after the results:

Peptide exchange (MHC class I binding score, peptide exchange yield)	Substance
“+++” (≥50 = +++)	497 (GLLEKLTAI; listed as Homo sapiens) [compound 497]
“+++” (≥50 = +++)	500 (SLMEDQVLQL; listed as Homo sapiens) [compound 500]
“+++” (≥50 = +++)	501 (LLDPNVKSIFV; listed as Homo sapiens) [compound 501]
“+++” (≥50 = +++)	506 (KLLGKVETA; listed as Homo sapiens) [compound 506]
“+++” (≥50 = +++)	508 (ILAQEQLVVGV; listed as Homo sapiens) [compound 508]
“+++” (≥50 = +++)	514 (ILVDWLVQV; listed as Homo sapiens) [compound 514]
“+++” (≥50 = +++)	515 (LLQELVLFL; listed as Homo sapiens) [compound 515]
“++” (≥20% = ++)	516 (AVGPASILKEV; listed as Homo sapiens) [compound 516]
“++” (≥20% = ++)	524 (ALIENLTHQI; listed as Homo sapiens) [compound 524]
“+++” (≥50 = +++)	528 (SVAEGRALMSV; listed as Homo sapiens) [compound 528]
“+++” (≥50 = +++)	537 (TLAPGEVLRSV; listed as Homo sapiens) [compound 537]
“+++” (≥50 = +++)	541 (SMLEPVPEL; listed as Homo sapiens) [compound 541]
“+++” (≥50 = +++)	543 (GLLPTPITQQASL; listed as Homo sapiens) [compound 543]
“+++” (≥50 = +++)	546 (VMIAGKVAVV; listed as Homo sapiens) [compound 546]
“+++” (≥50 = +++)	550 (FLYDEIEAEVNL; listed as Homo sapiens) [compound 550]
“++++” (≥75% = ++++)	553 (SLLNQDLHWSL; listed as Homo sapiens) [compound 553]
“+++” (≥50 = +++)	555 (YVLEGLKSV; listed as Homo sapiens) [compound 555]
“+++” (≥50 = +++)	556 (FLTDLEDLTL; listed as Homo sapiens) [compound 556]
“++” (≥20% = ++)	559 (VTVPPGPSL; listed as Homo sapiens) [compound 559]
“+++” (≥50 = +++)	560 (ALWDIETGQQTTT; listed as Homo sapiens) [compound 560]
“+++” (≥50 = +++)	562 (YLEELPEKLKL; listed as Homo sapiens) [compound 562]
“+++” (≥50 = +++)	563 (WLLPYNGVTV; listed as Homo sapiens) [compound 563]
“++” (≥20% = ++)	565 (ALQETPTSV; listed as Homo sapiens) [compound 565]
“++” (≥20% = ++)	566 (VIADGGIQNV; listed as Homo sapiens) [compound 566]
